Experimental data as given in patent publication US12338277.

Key:
Assay in all cases: cell-based or functional assay
[1] = target: HIV-1 envelope of pseudovirus 3365.v2.c2 (HIV-1)
[2] = target: HIV-1 Env of pseudovirus 7030102001E5(Rev-) (HIV-1)
[3] = target: HIV-1 envelope of pseudovirus X1632_S2_B10 (HIV-1)
[4] = target: HIV-1 Env of pseudovirus A07412M1.vrc12 (HIV-1)
[5] = target: HIV-1 envelope of pseudovirus R2184.c04 (HIV-1)
[6] = target: HIV-1 Env of pseudovirus 3415.v1.c1 (HIV-1)
[7] = target: HIV-1 envelope of pseudovirus C4118.c09 (HIV-1)
[8] = target: HIV-1 Env of pseudovirus 3103.v3.c10 (HIV-1)
[9] = target: HIV-1 Env of pseudovirus R1166.c01 (HIV-1)
[10] = target: HIV-1 Env of pseudovirus 246F C1G (HIV-1)
[11] = target: HIV-1 envelope of pseudovirus CNE30 (HIV-1)
[12] = target: HIV-1 Env of pseudovirus C2101.c01 (HIV-1)
[13] = target: HIV-1 envelope of pseudovirus C1080.c03 (HIV-1)
[14] = target: HIV-1 Env of pseudovirus 231966.c02 (HIV-1)
[15] = target: HIV-1 Env of pseudovirus WITO4160.33 (HIV-1)
[16] = target: HIV-1 envelope spike of pseudovirus 6535.3 (HIV-1)
[17] = target: HIV-1 envelope of pseudovirus T257-31 (HIV-1)
[18] = target: HIV-1 Env of pseudovirus T251-18 (HIV-1)
[19] = target: HIV-1 Env of pseudovirus HIV-0013095-2.11 (HIV-1)
[20] = target: HIV-1 envelope spike of pseudovirus PVO.4 (HIV-1)
[21] = target: HIV-1 envelope of pseudovirus BJOX009000.02.4 (HIV-1)
[22] = target: HIV-1 envelope of pseudovirus 3016.v5.c45 (HIV-1)
[23] = target: HIV-1 Env of pseudovirus CNE30 (HIV-1)
[24] = target: HIV-1 envelope of pseudovirus CNE20 (HIV-1)
[25] = target: HIV-1 envelope of pseudovirus Ce1086_B2 (HIV-1)
[26] = target: HIV-1 envelope of pseudovirus 3415.v1.c1 (HIV-1)
[27] = target: HIV-1 Env of pseudovirus Q769.d22 (HIV-1)
[28] = target: HIV-1 envelope of pseudovirus AC10.0.29 (HIV-1)
[29] = target: HIV-1 Env of pseudovirus T278-50 (HIV-1)
[30] = target: HIV-1 Env of pseudovirus 1054_07_TC4_1499 (HIV-1)
[31] = target: HIV-1 envelope of pseudovirus 249M B10 (HIV-1)
[32] = target: HIV-1 envelope of pseudovirus CAP45.2.00.G3 (HIV-1)
[33] = target: HIV-1 Env of pseudovirus X1254_c3 (HIV-1)
[34] = target: HIV-1 envelope of pseudovirus Q451.e2 (HIV-1)
[35] = target: HIV-1 envelope of pseudovirus ZM197M.PB7 (HIV-1)
[36] = target: HIV-1 envelope of pseudovirus ZM135M.PL10a (HIV-1)
[37] = target: HIV-1 Env of pseudovirus Ce704809221_1B3 (HIV-1)
[38] = target: HIV-1 envelope of pseudovirus ZM249M.PL1 (HIV-1)
[39] = target: HIV-1 Env of pseudovirus 928-28 (HIV-1)
[40] = target: HIV-1 Env of pseudovirus C4118.c09 (HIV-1)
[41] = target: HIV-1 Env of pseudovirus Du172.17 (HIV-1)
[42] = target: HIV-1 Env of pseudovirus 89-F1_2_25 (HIV-1)
[43] = target: HIV-1 Env of pseudovirus 62357_14_03_4589 (HIV-1)
[44] = target: HIV-1 envelope of pseudovirus X1193_c1 (HIV-1)
[45] = target: HIV-1 envelope of pseudovirus REJO4541.67 (HIV-1)
[46] = target: HIV-1 Env of pseudovirus HIV-16055-2.3 (HIV-1)
[47] = target: HIV-1 Env of pseudovirus CNE21 (HIV-1)
[48] = target: HIV-1 envelope of pseudovirus SC422661.8 (HIV-1)
[49] = target: HIV-1 Env of pseudovirus ZM214M.PL15 (HIV-1)
[50] = target: HIV-1 envelope of pseudovirus HIV-16055-2.3 (HIV-1)

Sequence of 10-996 (antibody) (VH): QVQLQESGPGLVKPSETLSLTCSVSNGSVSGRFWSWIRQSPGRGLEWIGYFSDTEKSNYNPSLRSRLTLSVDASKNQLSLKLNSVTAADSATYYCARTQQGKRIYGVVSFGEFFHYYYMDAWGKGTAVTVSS
Sequence of 10-996 (antibody) (VL): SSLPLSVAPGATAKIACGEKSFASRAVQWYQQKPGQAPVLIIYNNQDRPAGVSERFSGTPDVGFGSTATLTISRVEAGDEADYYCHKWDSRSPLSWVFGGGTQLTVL

10-996 (antibody)
IC50 (TZM-bl neutralization) [1]: 0.286 µg/mL | IC80 (TZM-bl neutralization) [2]: 0.044 µg/mL | IC50 (TZM-bl neutralization) [3]: > 50 µg/mL | IC80 (TZM-bl neutralization) [4]: 0.07 µg/mL | IC50 (TZM-bl neutralization) [5]: > 50 µg/mL | IC80 (TZM-bl neutralization) [6]: > 50 µg/mL | IC50 (TZM-bl neutralization) [7]: > 50 µg/mL | IC80 (TZM-bl neutralization) [8]: 0.15 µg/mL | IC80 (TZM-bl neutralization) [9]: > 50 µg/mL | IC80 (TZM-bl neutralization) [10]: 0.27 µg/mL | IC50 (TZM-bl neutralization) [11]: 0.614 µg/mL | IC80 (TZM-bl neutralization) [12]: > 50 µg/mL | IC50 (TZM-bl neutralization) [13]: > 50 µg/mL | IC80 (TZM-bl neutralization) [14]: > 50 µg/mL | IC80 (TZM-bl neutralization) [15]: 6.48 µg/mL | IC50 (TZM-bl neutralization assay) [16]: 0.018 µg/mL | IC80 (TZM-bl neutralization assay) [16]: 0.085 µg/mL | IC50 (TZM-bl neutralization) [17]: > 50 µg/mL | IC80 (TZM-bl neutralization) [18]: 7.4 µg/mL | IC80 (TZM-bl neutralization) [19]: > 50 µg/mL | IC50 (TZM-bl neutralization assay) [20]: 0.211 µg/mL | IC80 (TZM-bl neutralization assay) [20]: 1.72 µg/mL | IC50 (TZM-bl neutralization) [21]: > 50 µg/mL | IC50 (TZM-bl neutralization) [22]: > 50 µg/mL | IC80 (TZM-bl neutralization) [23]: 1.99 µg/mL | IC50 (TZM-bl neutralization) [24]: < 0.001 µg/mL | IC50 (TZM-bl neutralization) [25]: > 50 µg/mL | IC50 (TZM-bl neutralization) [26]: 35.9 µg/mL | IC80 (TZM-bl neutralization) [27]: > 50 µg/mL | IC50 (TZM-bl neutralization) [28]: 0.067 µg/mL | IC80 (TZM-bl neutralization) [29]: > 50 µg/mL | IC80 (TZM-bl neutralization) [30]: 0.901 µg/mL | IC50 (TZM-bl neutralization) [31]: > 50 µg/mL | IC50 (TZM-bl neutralization) [32]: > 50 µg/mL | IC80 (TZM-bl neutralization) [33]: 0.42 µg/mL | IC50 (TZM-bl neutralization) [34]: > 50 µg/mL | IC50 (TZM-bl neutralization) [35]: > 50 µg/mL | IC50 (TZM-bl neutralization) [36]: 0.099 µg/mL | IC80 (TZM-bl neutralization) [37]: 1.21 µg/mL | IC50 (TZM-bl neutralization) [38]: > 50 µg/mL | IC80 (TZM-bl neutralization) [39]: 7.15 µg/mL | IC80 (TZM-bl neutralization) [40]: > 50 µg/mL | IC80 (TZM-bl neutralization) [41]: 0.607 µg/mL | IC80 (TZM-bl neutralization) [42]: > 50 µg/mL | IC80 (TZM-bl neutralization) [43]: > 50 µg/mL | IC50 (TZM-bl neutralization) [44]: 0.144 µg/mL | IC50 (TZM-bl neutralization) [45]: > 50 µg/mL | IC80 (TZM-bl neutralization) [46]: > 50 µg/mL | IC80 (TZM-bl neutralization) [47]: 0.255 µg/mL | IC50 (TZM-bl neutralization) [48]: 0.173 µg/mL | IC80 (TZM-bl neutralization) [49]: 3.25 µg/mL | IC50 (TZM-bl neutralization) [50]: > 50 µg/mL
